The source of these data is patent publication US20170204445A1, “IN VIVO SITE-SPECIFIC PROTEIN TAGGING USING ENGINEERED SORTASE VARIANTS” (priority 2016, published 2017).

This assay has as its target Biotin-Lysozyme (hen) (UniProt P00698). Kind of assay: flow. The note with it: scFv.

What is called Kd is the constant that tells how readily two partners part at equilibrium. Lower therefore signals higher affinity.

Sequence of Biotin-Lysozyme (hen) (P00698 19-147): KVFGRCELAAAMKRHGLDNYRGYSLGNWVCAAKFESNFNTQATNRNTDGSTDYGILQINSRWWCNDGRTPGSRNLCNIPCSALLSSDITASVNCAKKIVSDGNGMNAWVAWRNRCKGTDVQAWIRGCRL

As for scFv D1.3 (from UniProt P32781 19-87), the dissociation constant Kd was determined as 0.5 nM.
On to “scFv D1.3 (from UniProt P42212 1-238; P32781 19-87)”, for which the Kd was found to be 0.5 nM.
